# Laboratory results reported in patent publication US20070134734.
# Key:
# [1] = target: GST-fused eIF4B (GST gene fused to the N-terminus), cell-free synthesized (UniProt P23588)
# [2] = target: GST-fused stress-induced phosphoprotein 1 (STIP1) (GST gene fused to the N-terminus), cell-free synthesized (UniProt P31948)
# GST-fused eIF4B (GST gene fused to the N-terminus), cell-free synthesized, sequence (P23588 whole entry, the tested form may be a part): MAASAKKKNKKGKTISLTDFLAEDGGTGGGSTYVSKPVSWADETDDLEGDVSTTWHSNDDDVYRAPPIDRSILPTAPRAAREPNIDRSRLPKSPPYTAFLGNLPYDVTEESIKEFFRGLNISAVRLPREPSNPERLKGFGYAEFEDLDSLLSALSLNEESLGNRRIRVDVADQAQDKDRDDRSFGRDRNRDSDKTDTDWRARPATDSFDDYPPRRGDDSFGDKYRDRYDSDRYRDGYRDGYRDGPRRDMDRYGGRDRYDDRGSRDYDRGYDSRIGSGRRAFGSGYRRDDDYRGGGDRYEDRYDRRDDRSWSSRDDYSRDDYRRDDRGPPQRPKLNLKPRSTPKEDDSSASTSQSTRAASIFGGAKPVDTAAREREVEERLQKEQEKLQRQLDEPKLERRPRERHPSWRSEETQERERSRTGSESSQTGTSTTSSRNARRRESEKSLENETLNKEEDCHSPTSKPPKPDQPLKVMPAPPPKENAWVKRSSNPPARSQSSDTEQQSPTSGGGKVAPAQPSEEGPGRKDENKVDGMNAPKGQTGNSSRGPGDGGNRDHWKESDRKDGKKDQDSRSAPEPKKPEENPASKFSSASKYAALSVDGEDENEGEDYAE
substance,measurement,setting,value
"human CaMKIIδ protein (calmodulin kinase II delta), synthesized in a wheat embryo cell-free protein synthesis system","in vitro phosphorylation assay ([γ-32P]ATP, GST-fused substrate on glutathione resin, SDS-PAGE autoradiography)",[1],there was reproduced the reaction in which GST-fused eIF4B and STIP1 were phosphorylated by CaMKIIδ
same,"in vitro phosphorylation assay ([γ-32P]ATP, GST-fused substrate on glutathione resin, SDS-PAGE autoradiography)",[2],there was reproduced the reaction in which GST-fused eIF4B and STIP1 were phosphorylated by CaMKIIδ
